# From paper PMC3846777, “Characteristics and Function of Sulfur Dioxygenase in Echiuran Worm Urechis unicinctus” (PLoS ONE, 2013)
# Where a chain is given by its changes, count along the chain named. Names and notes keep the numbering of the source.
# B1: Del-2 (Urechis unicinctus) (protein)
# chain: MLSSVCGSLRRTLCNGSVLASKHPFLGRSNALKLETKPVCTRVMYRSYSANMHGQEVVFRQLFDNTSFTYTYLLGDAASKEAVLIDPVIELVDRDVRIVKELGLNLKYAVNTHVHADHVTGTGEIKKRIPTCKSVIAECSQAKADVFINEGDGIEFGQF
# notes: C-terminally truncated SDO, 477 bp from the start codon (159 residues, end calculated from printed size)
# B2: Del-3 (Urechis unicinctus) (protein)
# chain: MLSSVCGSLRRTLCNGSVLASKHPFLGRSNALKLETKPVCTRVMYRSYSANMHGQEVVFRQLFDNTSFTYTYLLGDAASKEAVLIDPVIELVDRDVRIVKELGLNLKYAVNTHVHADHVTGTGEIKKRIPTCKSVIAECSQAKADVFINEGDGIEFGQFKLECRSTPGHTDGCFTYVWHEKGMAFTGDALLIRGCGRTDFQQGSS
# notes: C-terminally truncated SDO, 615 bp from the start codon (205 residues, end calculated from printed size)
# B3: U. unicinctus SDO (complete ORF, wild type) (Urechis unicinctus; D117E/H118A) (protein)
# chain: MLSSVCGSLRRTLCNGSVLASKHPFLGRSNALKLETKPVCTRVMYRSYSANMHGQEVVFRQLFDNTSFTYTYLLGDAASKEAVLIDPVIELVDRDVRIVKELGLNLKYAVNTHVHAEAVTGTGEIKKRIPTCKSVIAECSQAKADVFINEGDGIEFGQFKLECRSTPGHTDGCFTYVWHEKGMAFTGDALLIRGCGRTDFQQGSSEALYKSVHGKILSLPEQFILYPAHDYTGQTSTTVREEKNHNPRLTKPIDVFIRIMSELNLPYPKQLDRALPANMVCGIFDTESPPSKS
# B4: U. unicinctus SDO (complete ORF, wild type) (Urechis unicinctus) (protein)
# chain: B3 chain with E117D, A118H
# B5: Del-1 (Urechis unicinctus) (protein)
# chain: MLSSVCGSLRRTLCNGSVLASKHPFLGRSNALKLETKPVCTRVMYRSYSANMHGQEVVFRQLFDNTSFTYTYLLGDAASKEAVLIDPVIELVDRDVRIVKELGLNL
# notes: C-terminally truncated SDO, 318 bp from the start codon (106 residues, end calculated from printed size), lacks all metal sites
# B6: Del-4 (Urechis unicinctus) (protein)
# chain: MLSSVCGSLRRTLCNGSVLASKHPFLGRSNALKLETKPVCTRVMYRSYSANMHGQEVVFRQLFDNTSFTYTYLLGDAASKEAVLIDPVIELVDRDVRIVKELGLNLKYAVNTHVHADHVTGTGEIKKRIPTCKSVIAECSQAKADVFINEGDGIEFGQFKLECRSTPGHTDGCFTYVWHEKGMAFTGDALLIRGCGRTDFQQGSSEALYKSVHGKILSLPEQFILYPAHDYTGQTSTTVREEKNHNPRLTKPI
# notes: C-terminally truncated SDO, 759 bp from the start codon
# Key:
# Test in all cases: oxygen consumption, Clark-type oxygen electrode (Oxytherm)
# Assay type in all cases: biochemical, Urechis unicinctus
# Conditions in all cases: 0.1 M potassium phosphate pH 7.4, 25°C, O2 co-substrate, GSS^− prepared from GSH and acetonic sulfur
# [1] = substrate: N[C@@H](CCC(=O)N[C@@H](CSS)C(=O)NCC(=O)O)C(=O)O
# Text: oxygen consumption, Clark-type oxygen electrode (Oxytherm) on Del-2
# [2] = substrate: N[C@@H](CCC(=O)N[C@@H](CSS)C(=O)NCC(=O)O)C(=O)O; remark: listed apart in the source
# Text: oxygen consumption, Clark-type oxygen electrode (Oxytherm) on Del-3
# [3] = substrate: N[C@@H](CCC(=O)N[C@@H](CSS)C(=O)NCC(=O)O)C(=O)O; remark: listed apart in the source
# [4] = substrate: N[C@@H](CCC(=O)N[C@@H](CSS)C(=O)NCC(=O)O)C(=O)O; remark: listed apart in the source
# Text: oxygen consumption, Clark-type oxygen electrode (Oxytherm) on U. unicinctus SDO (complete ORF, wild type)
# [5] = substrate: N[C@@H](CCC(=O)N[C@@H](CSS)C(=O)NCC(=O)O)C(=O)O; remark: listed apart in the source
# Text: oxygen consumption, Clark-type oxygen electrode (Oxytherm) on Del-1
# [6] = substrate: N[C@@H](CCC(=O)N[C@@H](CSS)C(=O)NCC(=O)O)C(=O)O; remark: listed apart in the source
# Text: oxygen consumption, Clark-type oxygen electrode (Oxytherm) on Del-4
protein,measurement,setting,value
B1,Km,[1],137.0 ± 17.2 µM
same,Vmax,[1],0.42 ± 0.024 µmol/min/mg
same,kcat,[1],0.16 s⁻¹
B2,Km,[2],104.6 ± 16.7 µM
same,Vmax,[2],0.98 ± 0.065 µmol/min/mg
same,kcat,[2],0.45 s⁻¹
B3,Km,[3],174.4 ± 16.8 µM
B4,Km,[4],82.5 ± 9.9 µM
same,Vmax,[4],1.74 ± 0.081 µmol/min/mg
same,kcat,[4],1.09 s⁻¹
B5,Km,[5],218.9 ± 33.5 µM
same,Vmax,[5],0.33 ± 0.014 µmol/min/mg
same,kcat,[5],0.09 s⁻¹
B6,Km,[6],83.0 ± 10.9 µM
same,Vmax,[6],1.23 ± 0.063 µmol/min/mg
same,kcat,[6],0.68 s⁻¹
